This note sets out measurements from article PMC3904721, “The BEL1-like family of transcription factors in potato”.

In one series the target is NTH1 (tobacco). The series can be described thus: two-hybrid; Matchmaker system (Clontech), yeast strain pJ69-2A; StBELs in pACT-AD (GAL4 activation domain), KNOX proteins in pBridge (GAL4-binding domain); co-transformation, selection on -Leu/-Trp/-His/-Ade; lacZ induction quantified by β-galactosidase assay (Miller units), three replicate samples.
Series [1] has as its target POTATO HOMEOBOX1 (POTH1) (potato). Described as above.
In another series the target is T1, StBEL5-GST;POTH1-GST (Solanum tuberosum (potato);Solanum …, UniProt Q8LLE4;P93588 1-688;1-345, |).
T1 sequence 1: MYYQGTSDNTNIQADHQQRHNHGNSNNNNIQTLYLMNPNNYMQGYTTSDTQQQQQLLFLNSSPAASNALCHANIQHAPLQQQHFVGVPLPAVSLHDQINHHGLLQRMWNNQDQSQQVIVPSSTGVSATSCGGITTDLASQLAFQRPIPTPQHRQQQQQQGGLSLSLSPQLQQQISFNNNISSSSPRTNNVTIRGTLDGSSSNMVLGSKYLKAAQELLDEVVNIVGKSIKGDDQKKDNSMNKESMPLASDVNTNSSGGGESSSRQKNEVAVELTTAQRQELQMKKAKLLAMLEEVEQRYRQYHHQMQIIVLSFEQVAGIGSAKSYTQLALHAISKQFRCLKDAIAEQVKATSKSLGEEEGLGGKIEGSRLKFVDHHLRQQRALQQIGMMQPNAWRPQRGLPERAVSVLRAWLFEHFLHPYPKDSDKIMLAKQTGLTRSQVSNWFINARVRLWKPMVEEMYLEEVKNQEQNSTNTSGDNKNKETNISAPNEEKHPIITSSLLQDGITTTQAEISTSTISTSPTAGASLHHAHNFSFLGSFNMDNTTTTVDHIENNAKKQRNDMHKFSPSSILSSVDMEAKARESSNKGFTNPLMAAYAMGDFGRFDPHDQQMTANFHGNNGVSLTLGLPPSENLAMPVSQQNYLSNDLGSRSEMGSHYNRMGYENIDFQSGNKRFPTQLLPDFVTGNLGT
T1 sequence 2: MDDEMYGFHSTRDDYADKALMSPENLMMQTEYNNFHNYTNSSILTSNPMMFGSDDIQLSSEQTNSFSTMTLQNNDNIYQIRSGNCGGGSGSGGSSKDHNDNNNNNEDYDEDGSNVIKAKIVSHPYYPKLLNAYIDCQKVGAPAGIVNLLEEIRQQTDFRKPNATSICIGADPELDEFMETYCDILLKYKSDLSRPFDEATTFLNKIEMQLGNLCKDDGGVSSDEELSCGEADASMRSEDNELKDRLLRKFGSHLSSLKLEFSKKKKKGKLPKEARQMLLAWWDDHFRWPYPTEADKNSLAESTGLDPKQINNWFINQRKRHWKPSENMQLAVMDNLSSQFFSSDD
The series can be described thus: EMSA; 2 mM Mg2+; 20 mM HEPES pH 7.5, 50 mM KCl, 2 mM MgCl2, 0.5 mM EDTA, 1 mM DTT, 10% glycerol, 0.5% Triton X-100, 20 ng/ul BSA, 50 ng/ul poly(dI-dC), 20 ul, on ice 60 min; 10. As to conditions: protein: recombinant;recombinant; tags: C-terminal GST;C-terminal GST; copies: 1;1; label: 3' biotin; blunt. For orientation: Mobility shift assays separate free from complexed probe on a gel.

Take StBEL6 (natural protein): in the series with NTH1 (tobacco), the beta-galactosidase activity came to 58 Miller units.
The molecule “StBEL13 (from UniProt M1AMS7 1-738) (natural protein)” gave a beta-galactosidase activity with NTH1 (tobacco) of 233 units.
“StBEL31 (from UniProt M0ZWL8 1-423) (natural protein)” gave a beta-galactosidase activity with NTH1 (tobacco) of 25 Miller units.
Molecule “StBEL33 (from UniProt M1C8Y5 1-505) (natural protein)” registered a beta-galactosidase activity in series [1] of 274 units.

B1: StBEL34 bait (BEL34S/BEL34A) (dsDNA)
DNA 1: CCTTTCAATAAGATTATTGACGGTGACAATACTCGCCGTCAAA
DNA 2: TTTGACGGCGAGTATTGTCACCGTCAATAATCTTATTGAAAGG
For B1, the binding result with StBEL5-GST;POTH1-GST was “binds”.
